Experimental data as given in patent publication US8686110B2, “Therapeutic pro-apoptotic BH3-like molecules and methods for generating and/or selecting the same” (The Walter and Eliza Hall Institute of Medical Research, priority 2005, dated 2014).

Target: T1, Mcl-1 (Mus musculus, UniProt P97287)
T1 construct: GST (cleaved yes); made in house; host or cells: E. coli
Assay: Phage ELISA (titration and competition) of phage-displayed BH3 domains
Format: binding
Settings: Bak BH3 mutants; from Table 4e
From the text: In order to create a FLAG-tagged form of the sequence, an oligonucleotide encoding the FLAG epitope was employed to loop-in the required sequence at the N-terminus of the peptide sequences, already fused to gene 3 as described above, using the Kunkel mutagenesis method (Kunkel et al. Methods Enzymol 204:125-139, 1991). For the alanine scanning constructs and other point mutations of the BimBH3 or other BH3 sequence, oligonucleotides with the desired codon mismatch were employed in Kunkel mutagenesis reactions on the FLAG-BimBH3 or FLAG-BadBH3 template. […]
All ELISA's were performed as described previously (Fairlie et al. J Biol Chem 279:2125-2134, 2004). […] Following washing with PBS/Tween, bound phage were detected using a horseradish peroxidase-conjugated anti-M13 antibody. […]
In an initial assay, the BimBH3 and other BH3 phage were tested for their ability to bind directly to immobilised Bcl-xL and Mcl-1. […] The specificity of the interactions were further assessed using a competition assay in which phage binding to the immobilised protein was competed with the corresponding recombinant protein in solution. The IC50 values obtained are as presented in Table 3 and were very similar to those determined with BimBH3 and BadBH3 synthetic peptides as measured by surface plasmon resonance on a BIAcore instrument (Chen et al. 2005 supra) and using isothermal calorimetry (unpublished data). […]

T1 sequence (P97287 152-308 limits assumed): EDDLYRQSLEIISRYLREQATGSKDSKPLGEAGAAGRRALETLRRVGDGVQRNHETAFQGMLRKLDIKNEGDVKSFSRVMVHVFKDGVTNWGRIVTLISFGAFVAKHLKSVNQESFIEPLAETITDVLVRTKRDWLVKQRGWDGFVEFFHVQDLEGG

Row | Substance | selectivity among pro-survival proteins, in words
1 | I19A (PSSTMGQVGRQLAIIGDDANRRYDSE) [Bim I19A] | selective for Mcl-1
2 | V8A (PSSTMGQAGRQLAIIGDDINRRYDSE) [Bim V8A] | selective for Mcl-1
